Results as given in patent US20220396632A1 (VERSEAU THERAPEUTICS, published 2022).
Non-standard residues stand in square brackets, D forms with d. No end group written: not given here. *: point of attachment. Biotin = O=C1N[C@H]2[C@H](CS[C@H]2CCCCC(=O)*)N1; sY = N[C@@H](Cc1ccc(OS(=O)(=O)O)cc1)C(=O)O

Tests used:
[1] = target: T1, SulfoTyr C4 peptide (not fully specified; Y4, Y7 and Y9 sulfated (SO3); C-terminal biotin); experiment: ELISA, 50 nM mAb
T1 construct: also called C4 alpha chain peptide; human sulfotyrosinylated C4 peptide
T1 peptide: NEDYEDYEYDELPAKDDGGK
Protocol: (§1) Recombinant PSGL-1-hFc1 chimera protein consisting of PSGL-1's extracellular domain (ECD) served as a positive control. […] Primary antibody was added (25 ul per well) in duplicate at 50 nM in assay buffer (blocking buffer containing 0.05% Tween®20) into test and control (just blocked) wells and the plate incubated for 45 min at 37° C.

[2] = target: T2, Sulfotyr fibrinogen γ peptide (not fully specified; Y8 and Y12 sulfated (SO3); C-terminal biotin); experiment: ELISA, 50 nM mAb
T2 construct: also called Fibrinogen gamma peptide; human sulfotyrosinylated fibrinogen peptide
T2 peptide: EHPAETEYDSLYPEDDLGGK
Protocol: as §1

[3] = target: T3, Recombinant human PSGL-1(ECD)-hFc1 (R&D Systems, Cat. 3345-PS) (human, UniProt Q14242 42-305); experiment: ELISA, 50 nM mAb
T3 construct: Bought; Gln42-Val295 counted on AAC50061; also called PSGL-1-Fc; PSGL-1-hFc1 chimera; not shown: human IgG1 Fc, Pro100-Lys330
T3 sequence: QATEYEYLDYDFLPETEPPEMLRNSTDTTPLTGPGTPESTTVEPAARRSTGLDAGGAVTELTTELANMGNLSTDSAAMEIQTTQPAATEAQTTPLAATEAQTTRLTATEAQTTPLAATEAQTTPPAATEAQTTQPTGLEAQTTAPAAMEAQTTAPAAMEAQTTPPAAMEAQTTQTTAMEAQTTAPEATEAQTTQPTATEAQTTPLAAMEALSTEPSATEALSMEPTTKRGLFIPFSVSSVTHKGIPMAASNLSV
Protocol: as §1

[4] = target: T4, Human complement C4 protein (Millipore Sigma, Cat. 204886) (human, UniProt P0C0L4 20-675; P0C0L4 680-1446; P0C0L4 1454-1744, limits assumed, natural sulfotyrosines); experiment: ELISA, 50 nM mAb
T4 construct: mature
Protocol: as §1

[5] = target: T5, Human fibrinogen protein (ThermoFisher, RP-43142) (human, UniProt P02671 20-629; P02675 31-491; P02679 27-453, limits assumed, natural sulfotyrosines); experiment: ELISA, 50 nM mAb
T5 construct: mature; Native dimer with 3 pairs of non-identical chains; also called gamma-fibrinogen; γ fibrinogen protein
T5 sequence (looked up) 1: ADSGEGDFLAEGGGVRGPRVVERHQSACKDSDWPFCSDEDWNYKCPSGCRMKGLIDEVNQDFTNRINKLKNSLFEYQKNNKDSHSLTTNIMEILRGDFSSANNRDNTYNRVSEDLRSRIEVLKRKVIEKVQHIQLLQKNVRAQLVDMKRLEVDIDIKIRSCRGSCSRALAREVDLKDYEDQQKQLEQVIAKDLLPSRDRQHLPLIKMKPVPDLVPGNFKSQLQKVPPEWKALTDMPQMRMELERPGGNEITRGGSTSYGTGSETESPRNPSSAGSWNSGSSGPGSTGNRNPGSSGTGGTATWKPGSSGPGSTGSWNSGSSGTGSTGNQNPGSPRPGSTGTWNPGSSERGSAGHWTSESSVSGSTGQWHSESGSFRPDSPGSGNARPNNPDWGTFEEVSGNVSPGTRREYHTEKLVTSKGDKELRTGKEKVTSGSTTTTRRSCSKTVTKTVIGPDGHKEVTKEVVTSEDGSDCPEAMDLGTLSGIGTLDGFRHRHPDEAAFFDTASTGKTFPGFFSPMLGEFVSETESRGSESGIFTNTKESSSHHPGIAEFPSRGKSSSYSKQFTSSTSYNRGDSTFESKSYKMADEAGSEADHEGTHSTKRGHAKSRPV
T5 sequence (looked up) 2: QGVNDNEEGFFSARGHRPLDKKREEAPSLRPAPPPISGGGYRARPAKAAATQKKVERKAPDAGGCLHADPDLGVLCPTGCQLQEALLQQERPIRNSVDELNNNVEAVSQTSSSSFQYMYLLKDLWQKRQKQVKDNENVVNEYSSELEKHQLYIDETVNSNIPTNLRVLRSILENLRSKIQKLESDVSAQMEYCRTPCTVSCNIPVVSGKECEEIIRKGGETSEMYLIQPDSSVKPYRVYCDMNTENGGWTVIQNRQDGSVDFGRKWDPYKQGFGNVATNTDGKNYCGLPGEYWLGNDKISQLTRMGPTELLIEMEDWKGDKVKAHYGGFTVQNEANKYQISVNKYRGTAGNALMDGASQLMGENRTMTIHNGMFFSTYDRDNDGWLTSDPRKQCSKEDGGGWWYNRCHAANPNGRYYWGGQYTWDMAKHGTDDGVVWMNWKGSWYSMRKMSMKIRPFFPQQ
T5 sequence (looked up) 3: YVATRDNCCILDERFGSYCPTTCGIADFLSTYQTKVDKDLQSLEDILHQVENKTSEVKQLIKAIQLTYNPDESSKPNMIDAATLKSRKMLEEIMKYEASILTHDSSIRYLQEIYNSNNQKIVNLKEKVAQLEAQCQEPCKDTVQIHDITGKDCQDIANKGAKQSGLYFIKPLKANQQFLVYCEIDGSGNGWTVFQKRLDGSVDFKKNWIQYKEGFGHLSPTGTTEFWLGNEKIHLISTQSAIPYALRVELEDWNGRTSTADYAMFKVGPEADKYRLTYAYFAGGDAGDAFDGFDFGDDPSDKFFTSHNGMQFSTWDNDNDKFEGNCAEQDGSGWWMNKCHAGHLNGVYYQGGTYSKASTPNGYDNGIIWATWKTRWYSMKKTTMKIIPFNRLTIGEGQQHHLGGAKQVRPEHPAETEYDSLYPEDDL
Protocol: as §1

[6] = target: T6, SulfoCCK biotin peptide (human); experiment: ELISA, 50 nM mAb
T6 construct: also called sulfotyrosine CCK peptide
T6 peptide: SHRISDRD[sY]MGWMDFGGK(Biotin)
Protocol: as §1

[7] = target: T7, Sulfotyrosine CCR2b biotin peptide (human); experiment: ELISA, 50 nM mAb
T7 construct: also called CCR2b peptide
T7 peptide: TTFFD[sY]D[sY]GAPSHGGK(Biotin)
Protocol: as §1

[8] = target: T8, Sulfotyrosine D6 biotin peptide (human); experiment: ELISA, 50 nM mAb
T8 construct: also called D6 peptide
T8 peptide: ENSSFY[sY][sY]D[sY]LDEVAFGGK(Biotin)
Protocol: as §1

[9] = target: T9, Biotin PSGL-1(42-62) peptide, unmodified (human, C-terminal Lys-biotin); experiment: ELISA, immobilized biotin peptide
T9 construct: Residues 42-62 followed by GGGK-biotin; also called WT; wild-type
T9 peptide: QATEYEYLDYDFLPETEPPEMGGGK
In short: (§2)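 In this ELISA, half-well high binding plates (Corning Cat. #3690) received 3 ug/mL/25 ul per well of biotin-tagged PSGL-1 peptides covering residues 42 to 62, diluted in PBS, pH 7.4, and coated overnight at 4° C. Duplicate readings for each antibody were averaged and the average assay background was subtracted. PSGL-1 protein or peptide was the positive control.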

[10] = target: T10, Biotin Y46,48,51(SO3) PSGL-1(42-62) peptide (human, sulfotyrosine at Y46, Y48 and Y51; C-terminal Lys-biotin); experiment: ELISA, immobilized biotin peptide
T10 construct: also called fully sulfated N-terminal PSGL-1 peptide
T10 peptide: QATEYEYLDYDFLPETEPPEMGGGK
In short: as §2

[11] = target: T11, Cynomolgus PSGL-1(ECD)-hFc1 (cynomolgus macaque); experiment: ELISA, 20 nM mAb on plate cyno PSGL-1(ECD)-Fc
T11 construct: also called Cyno PSGL1-Fc; Cyno PSGL-1(ECD)-Fc
Protocol: Antibody binding to plate-immobilized cyno PSGL-1(ECD) was determined either at one concentration (20 nM) or by generating full antibody binding curves (0.003-200 nM). A typical ELISA was performed by overnight coating at 4° C. with 3 ug/mL/25 ul per well of recombinant cyno PSGL-1(ECD) protein in PBS, pH 7.4, in high binding half-well plates (Corning Cat. #3690). […] Anti-PSGL-1 IgG in assay buffer (blocking buffer containing 0.05% tween 20) was added into test and control wells (20 nM/25 ul/well) and the plate incubated for 45 min at 37° C. […] The plate was incubated for 45 min at 37° C., and mAb bound to plate-immobilized target determined at A450 nm using HRP substrate (3,3′,5,5′-tetramethylbenzidine (TMB)). For each antibody, duplicate values were averaged and assay background subtracted.

[12] = target: T12, PSGL-1 endogenously expressed on HL-60 cells (UniProt Q14242 42-412); experiment: flow cytometry on HL-60 cells
T12 construct: whole, on cells
T12 sequence (looked up): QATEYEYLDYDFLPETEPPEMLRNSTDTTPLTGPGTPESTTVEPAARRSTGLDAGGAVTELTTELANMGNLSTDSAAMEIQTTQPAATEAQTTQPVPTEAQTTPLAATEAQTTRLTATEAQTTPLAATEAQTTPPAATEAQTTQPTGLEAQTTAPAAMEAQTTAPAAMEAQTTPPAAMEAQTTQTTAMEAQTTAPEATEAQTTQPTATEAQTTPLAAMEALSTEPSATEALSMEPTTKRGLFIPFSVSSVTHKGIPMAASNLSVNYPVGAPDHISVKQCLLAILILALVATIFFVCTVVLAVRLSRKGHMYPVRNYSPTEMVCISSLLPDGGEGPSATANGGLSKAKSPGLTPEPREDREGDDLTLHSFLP
Protocol: (§3) A typical flow cytometry assay was performed by resuspending HL-60 cells in FACS buffer (5% FBS and 0.05% Sodium Azide in PBS, pH 7.2) on ice, pelleting cells by centrifugation at 500×g for 3 min, washing cells with FACS buffer, and then blocking Fc receptors on the cells with Fc block (human TruStain FcX™, BioLegend Cat. #422302) on ice for 10 min. After washing, 50,000 cells/50 ul in FACS buffer was added to each well of a 96-well round bottomed plate (Costar, Cat. #3797), and 50 ul of serially diluted (0.06 nM-1.0 uM) test or isotype control antibody was added into duplicate wells. The plate was covered and incubated on ice for 1 h. After washing, Phycoerythrin (PE) conjugated anti-human IgG secondary antibody (Abcam; Cat. #ab99825) was added to each well and the plate incubated in the dark on ice for 30 min. After washing, the cells were fixed (1% paraformaldhyde).

[13] = target: T12, PSGL-1 endogenously expressed on HL-60 …; experiment: flow cytometry on HL-60 cells; against parent 20I15
Protocol: as §3

T11 sequence (chain, as listed by the source limits assumed): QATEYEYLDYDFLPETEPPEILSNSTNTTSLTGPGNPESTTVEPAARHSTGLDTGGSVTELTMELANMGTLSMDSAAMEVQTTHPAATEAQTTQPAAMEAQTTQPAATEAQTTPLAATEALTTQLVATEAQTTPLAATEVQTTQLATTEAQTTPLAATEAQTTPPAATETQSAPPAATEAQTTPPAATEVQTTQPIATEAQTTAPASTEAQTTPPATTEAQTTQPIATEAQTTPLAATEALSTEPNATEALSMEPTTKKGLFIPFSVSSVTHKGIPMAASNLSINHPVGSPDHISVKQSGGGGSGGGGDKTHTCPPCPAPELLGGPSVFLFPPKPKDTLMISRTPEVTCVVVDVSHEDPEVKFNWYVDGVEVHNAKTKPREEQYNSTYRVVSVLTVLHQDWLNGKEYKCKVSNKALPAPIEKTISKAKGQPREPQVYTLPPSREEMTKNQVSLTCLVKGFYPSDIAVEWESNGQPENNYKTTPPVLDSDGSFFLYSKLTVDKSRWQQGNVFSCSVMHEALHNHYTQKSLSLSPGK
T4 sequence (P0C0L4 20-675 limits assumed, form in doubt, chain 1 of 3): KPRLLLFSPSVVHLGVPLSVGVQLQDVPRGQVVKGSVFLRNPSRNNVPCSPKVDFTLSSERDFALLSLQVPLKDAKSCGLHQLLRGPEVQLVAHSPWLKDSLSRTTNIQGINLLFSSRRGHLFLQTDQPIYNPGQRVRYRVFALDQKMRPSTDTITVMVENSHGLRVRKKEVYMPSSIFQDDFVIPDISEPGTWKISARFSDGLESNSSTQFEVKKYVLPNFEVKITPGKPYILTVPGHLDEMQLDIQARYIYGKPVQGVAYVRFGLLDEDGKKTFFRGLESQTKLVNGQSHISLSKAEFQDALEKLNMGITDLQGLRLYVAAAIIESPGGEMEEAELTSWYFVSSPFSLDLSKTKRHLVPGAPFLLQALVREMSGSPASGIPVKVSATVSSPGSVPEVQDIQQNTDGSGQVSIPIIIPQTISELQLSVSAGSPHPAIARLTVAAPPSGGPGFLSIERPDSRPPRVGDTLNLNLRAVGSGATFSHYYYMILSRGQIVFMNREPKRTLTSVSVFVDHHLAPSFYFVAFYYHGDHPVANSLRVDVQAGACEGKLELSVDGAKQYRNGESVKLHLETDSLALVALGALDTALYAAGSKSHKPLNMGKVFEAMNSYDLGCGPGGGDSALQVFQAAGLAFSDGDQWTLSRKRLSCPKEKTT
T4 sequence (P0C0L4 680-1446 limits assumed, form in doubt, chain 2 of 3): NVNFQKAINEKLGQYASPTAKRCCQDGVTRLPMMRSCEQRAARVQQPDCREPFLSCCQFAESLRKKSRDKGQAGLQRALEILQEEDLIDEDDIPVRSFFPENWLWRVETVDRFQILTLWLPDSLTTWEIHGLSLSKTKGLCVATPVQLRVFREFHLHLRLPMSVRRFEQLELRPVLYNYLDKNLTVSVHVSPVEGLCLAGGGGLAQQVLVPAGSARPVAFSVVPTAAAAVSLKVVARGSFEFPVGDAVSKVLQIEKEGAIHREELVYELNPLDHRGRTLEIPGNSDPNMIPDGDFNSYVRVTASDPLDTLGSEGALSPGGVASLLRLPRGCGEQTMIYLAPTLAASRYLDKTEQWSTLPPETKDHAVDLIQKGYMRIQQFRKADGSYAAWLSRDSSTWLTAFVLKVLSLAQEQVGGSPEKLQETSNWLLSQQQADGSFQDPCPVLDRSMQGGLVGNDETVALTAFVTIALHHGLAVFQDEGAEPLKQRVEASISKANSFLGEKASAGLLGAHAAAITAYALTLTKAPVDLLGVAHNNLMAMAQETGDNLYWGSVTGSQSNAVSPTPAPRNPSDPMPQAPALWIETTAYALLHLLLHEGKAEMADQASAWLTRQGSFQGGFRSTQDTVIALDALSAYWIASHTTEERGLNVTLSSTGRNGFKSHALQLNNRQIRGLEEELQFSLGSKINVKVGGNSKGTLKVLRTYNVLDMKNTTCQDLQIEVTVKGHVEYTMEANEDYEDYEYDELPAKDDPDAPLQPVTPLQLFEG
T4 sequence (P0C0L4 1454-1744 limits assumed, form in doubt, chain 3 of 3): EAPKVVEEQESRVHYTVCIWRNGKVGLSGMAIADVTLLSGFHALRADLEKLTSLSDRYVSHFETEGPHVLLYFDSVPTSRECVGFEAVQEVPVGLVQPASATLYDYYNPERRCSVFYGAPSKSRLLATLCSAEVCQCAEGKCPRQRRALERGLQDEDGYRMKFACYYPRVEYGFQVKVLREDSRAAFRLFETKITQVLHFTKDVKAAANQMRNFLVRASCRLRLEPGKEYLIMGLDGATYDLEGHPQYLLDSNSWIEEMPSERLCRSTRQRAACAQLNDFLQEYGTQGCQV

Row | Binder | binding normalized to PSGL-1 [1] | binding normalized to PSGL-1 [2] | A450nm [3] [A450nm] | binding normalized to PSGL-1 [4] | binding normalized to PSGL-1 [5] | binding normalized to PSGL-1 [6] | binding normalized to PSGL-1 [7] | binding normalized to PSGL-1 [8] | EC50 [9] [nM] | A450nm, 20 nM mAb [10] [A450nm] | EC50 [10] [nM] | A450nm [11] [A450 nm] | EC50 [12] [nM] | HL-60 EC50 (normalized) [13] [fold]
1 | 09D11 (antibody, IgG4, V domains shown) VH: QVQLVESGGGFIQPGGSLRLSCAASGLTFSNYAMTWVRQAPGKGLEWVSTISGGGGNTYYTDSVKGRFTISRDNSKNTLYLQMNSLKAEDTAVYRCAKGLAAALFDYWGQGTLVTVSS VL: DIVLTQSPDSLPVTPGEPASISCRSSRSLLHSNGHNFLAWYLQKPGQSPHLLIYLGSNRASGVPDRFSGSGSGTDFTLKISRVEAEDVGIYYCMQALQTPITFGQGTRLDIK | 0.05 | 0.09 | 2.65 | 0.32 | 0.07 | 0.06 | 0.04 | 0.26 | ~0.05 | 2.79 | 0.05 | 2.11 | – | –
2 | 20I15.001 (antibody, IgG4, V domains shown, Humanised; also called 20115.001) VH: EVQLVESGGGLVQPGGSLRLSCAASGFTFTDYYMSWVRQAPGKGLEWLGFIRNKANGYTTEYSASVKGRFTISRDNSKNSLYLQMNSLKTEDTAVYYCARTYLRRGYFDVWGQGTLVTVSS VL: DIQLTQSPSTLSASVGDRVTITCRASKSVSTSGYSYMHWFQQKPGKAPKLLIYLASNLESGVPSRFSGSGSGTEFTLTISSLQPDDFATYYCQHSRELPLTFGQGTKLEIK | – | – | – | – | – | – | – | – | – | – | – | – | 0.5 | 0.4
3 | 20I15.002 (antibody, IgG4, V domains shown, Humanised) VH: EVQLVESGGGLVQPGGSLRLSCAASGFTFTDYYMSWVRQAPGKGLEWLGFIRNKASGYTTEYSASVKGRFTISRDNSKNSLYLQMNSLKTEDTAVYYCARTYLRRGYFDVWGQGTLVTVSS VL: DIQLTQSPSTLSASVGDRVTITCRASKSVSTSGYSYMHWFQQKPGKAPKLLIYLASNLESGVPSRFSGSGSGTEFTLTISSLQPDDFATYYCQHSRELPLTFGQGTKLEIK | – | – | – | – | – | – | – | – | – | – | – | – | 1 | 0.7
4 | 03E05 (antibody, IgG4, V domains shown) VH: EVKLLESGGDLAQTGGSLRLSCVASGFTFSSYPMSWVRQAPGKGLEWVSAIRRSGATQYADSVKGRFTISRDNSKNTVYLQMNSLRVEDTAVYYCAKGTYDLGQGTLVTVSS VL: DIVMTQTPLSLPVTLGQPASISCRSSQSLVYSDGNTYLNWFHQRPGQSPRRLIYKVSNRDSGVPDRFSGSGSDTEFTLKISRVEAEDVGVYYCMQATHWPLTFGGGTKVEIK | 0.61 | 0.59 | 2.28 | 0.47 | 0.05 | 0.23 | 0.27 | 0.52 | 6.2 | 2.61 | 0.16 | 0.39 | – | –
